Data taken from publication PMC3629710 (2013).

Molecular target: Abi2-SH3 domain (AbI2B) (SH3 domain array) (Homo sapiens (Human), UniProt Q9NYB9-1)
Assay: SH3 domain array (far-western overlay)

Sequence of Abi2-SH3 domain (AbI2B) (SH3 domain array) (Q9NYB9 451-510): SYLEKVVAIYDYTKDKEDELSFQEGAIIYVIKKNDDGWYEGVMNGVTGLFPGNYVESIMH

- binding result: binds
Binder: SLLFRRTKATAPGPEGGGTLHPNPTDKTSSIQSRPLPSPPKFT (protein) [His-tagged-p130Cas-P2 domain]
